These are literature values, as cited in article PMC9574052.

A word on the Ki: it is a dissociation constant, usually derived from enzyme kinetics or from competition with a known ligand.

In the series the target is oxytocin receptor (Homo sapiens) (UniProt P30559).
Sequence of UniProt P30559 (P30559 whole entry): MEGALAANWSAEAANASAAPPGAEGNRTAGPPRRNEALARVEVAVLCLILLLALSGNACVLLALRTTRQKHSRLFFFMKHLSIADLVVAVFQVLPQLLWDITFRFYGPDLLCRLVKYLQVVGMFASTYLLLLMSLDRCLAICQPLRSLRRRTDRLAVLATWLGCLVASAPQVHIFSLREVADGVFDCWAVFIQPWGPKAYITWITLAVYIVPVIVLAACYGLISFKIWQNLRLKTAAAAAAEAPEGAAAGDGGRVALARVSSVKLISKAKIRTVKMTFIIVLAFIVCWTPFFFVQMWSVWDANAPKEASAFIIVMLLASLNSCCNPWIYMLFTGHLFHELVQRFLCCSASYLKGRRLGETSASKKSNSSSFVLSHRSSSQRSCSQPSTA

Sequence of oxytocin (P01178 whole entry, looked up): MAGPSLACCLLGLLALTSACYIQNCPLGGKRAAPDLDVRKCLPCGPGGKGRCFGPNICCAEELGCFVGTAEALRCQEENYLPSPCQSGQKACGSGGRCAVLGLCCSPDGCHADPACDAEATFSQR

On to oxytocin (from UniProt P01178), for which the Ki was 0.79 nM.
